Data on seven molecules can be found in paper PMC12668182, “Molecular basis for CSB stimulation of the SNM1A DNA repair nuclease” (Research Square, 2025).

First the molecules themselves.
B1: N-Avi-Biotin-SNM1A (a.a. 698-1040), wild type (domain or fragment, human, UniProt Q6PJP8 698-1040, looked up)
chain: KKTCPFYKKIPGTGFTVDAFQYGVVEGCTAYFLTHFHSDHYAGLSKHFTFPVYCSEITGNLLKNKLHVQEQYIHPLPLDTECIVNGVKVVLLDANHCPGAVMILFYLPNGTVILHTGDFRADPSMERSLLADQKVHMLYLDTTYCSPEYTFPSQQEVIRFAINTAFEAVTLNPHALVVCGTYSIGKEKVFLAIADVLGSKVGMSQEKYKTLQCLNIPEINSLITTDMCSSLVHLLPMMQINFKGLQSHLKKCGGKYNQILAFRPTGWTHSNKFTRIADVIPQTKGNISIYGIPYSEHSSYLEMKRFVQWLKPQKIIPTVNVGTWKSRSTMEKYFREWKLEAGY
modifications: biotin on the N-terminal Avi tag
notes: SNM1A (DCLRE1A), human, core catalytic domain (MBL-beta-CASP), residues 698-1040; Immobilised in SPR through the biotinylated Avi tag; held on streptavidin mutein beads in the co-purifications; also called N-Avi-SNM1A_(698-1040); core catalytic domain of SNM1A; source: Sf9 insect cells (BirA co-expressed, D-biotin added), purified (streptavidin mutein matrix, Superdex S75); not shown: Avi …
B2: E864A-SNM1A (MBL-beta-CASP domain, a.a. 698-1040), N-Avi (domain or fragment, human, UniProt Q6PJP8 698-1040, looked up)
chain: KKTCPFYKKIPGTGFTVDAFQYGVVEGCTAYFLTHFHSDHYAGLSKHFTFPVYCSEITGNLLKNKLHVQEQYIHPLPLDTECIVNGVKVVLLDANHCPGAVMILFYLPNGTVILHTGDFRADPSMERSLLADQKVHMLYLDTTYCSPEYTFPSQQEVIRFAINTAFAAVTLNPHALVVCGTYSIGKEKVFLAIADVLGSKVGMSQEKYKTLQCLNIPEINSLITTDMCSSLVHLLPMMQINFKGLQSHLKKCGGKYNQILAFRPTGWTHSNKFTRIADVIPQTKGNISIYGIPYSEHSSYLEMKRFVQWLKPQKIIPTVNVGTWKSRSTMEKYFREWKLEAGY
modifications: biotin on the N-terminal Avi tag
notes: SNM1A (DCLRE1A), human, core catalytic domain, residues 698-1040, E864A; also called SNM1A-E864A; SNM1A (E864A); source: Sf9 insect cells (D-biotin added), purified (streptavidin mutein matrix, gel filtration)

Values joined by “and” are separate entries in the source; they are usually repeats but may differ in a detail not shown here. Equal values may be shown once.

Data set [1] deals with T1, full-length CSB (ERCC6), wild type, recombinant (human, UniProt Q03468 1-1493).
T1 construct: CSB (ERCC6), human, full length, a.a; A TEV site follows the N-terminal tags, but no cleavage is described; also called FL-CSB; WT-CSB; source: Sf9 insect cells, purified (Ni-NTA, Superdex S200, HiTrap SP)
The experiment in a line: SPR; single-cycle; SNM1A immobilised via biotinylated N-terminal Avi tag on a Series S SA surface (~4000 RU); CSB constructs as analytes, 5 or 6 two-fold dilutions from 500 nM or 1 uM; 20 mM HEPES pH 7.5, 150 mM NaCl, 0.5 mM TCEP; 1:1 Langmuir fit; apparent KD. Particulars: both partners purified. For orientation: Surface plasmon resonance follows binding to a sensor surface in real time, without labels.

Data set [2] has as its target T1, full-length CSB (ERCC6), wild type, …. The experiment in a line: mass photometry; CSB and SNM1A mixed at 200 nM each, 5 min at room temperature, diluted 10-fold into the gasket; 50 mM HEPES pH 7.5, 300 mM NaCl, 0.5 mM TCEP; KD from mass counts. Particulars: both partners purified.
Data set [3] deals with the molecule itself. The experiment in a line: SEC-MALS; DN-CSB alone, 5 uM; monomer to dimer. On the technique in general: In gel filtration, larger molecules generally elute earlier.
In data set [4] the target is B1. The experiment in a line: SPR; multi-cycle; SNM1A immobilised via biotinylated N-terminal Avi tag (~4000 RU); two-fold dilutions from 2 uM, 300 s injection, 1200 s dissociation; regeneration with 1 M NaCl; apparent KD. Particulars: both partners purified.
The target in data set [5] is B2. The experiment in a line: SPR; single-cycle; SNM1A immobilised via biotinylated N-terminal Avi tag on a Series S SA surface (~4000 RU); CSB constructs as analytes, 5 or 6 two-fold dilutions from 500 nM or 1 uM; 20 mM HEPES pH 7.5, 150 mM NaCl, 0.5 mM TCEP; 1:1 Langmuir fit; apparent KD. Particulars: both partners purified.
The target in data set [6] is B1. The description is as above. The note with it: both partners purified.
Data set [7] addresses B1. The experiment in a line: pull-down + SEC; co-purification: CSB construct (eluted from Ni-NTA, desalted) incubated with N-Avi-Biotin-SNM1A on streptavidin mutein beads, washed (500 mM NaCl, 1 mM Mg2+), eluted with 5 mM D-biotin, run on Superdex S200 GL 10/300; SDS-PAGE, MS and calibration curve. The note with it: both partners purified.

In the case of B1, in data set [1], the Kd is 4.8 nM and 4 nM.

For B2, the Kd in data set [1] stood at 8 nM.

B3: SNM1A (a.a. 698-1040), tag of the preparation not stated (domain or fragment, human, UniProt Q6PJP8 698-1040, looked up)
chain: KKTCPFYKKIPGTGFTVDAFQYGVVEGCTAYFLTHFHSDHYAGLSKHFTFPVYCSEITGNLLKNKLHVQEQYIHPLPLDTECIVNGVKVVLLDANHCPGAVMILFYLPNGTVILHTGDFRADPSMERSLLADQKVHMLYLDTTYCSPEYTFPSQQEVIRFAINTAFEAVTLNPHALVVCGTYSIGKEKVFLAIADVLGSKVGMSQEKYKTLQCLNIPEINSLITTDMCSSLVHLLPMMQINFKGLQSHLKKCGGKYNQILAFRPTGWTHSNKFTRIADVIPQTKGNISIYGIPYSEHSSYLEMKRFVQWLKPQKIIPTVNVGTWKSRSTMEKYFREWKLEAGY
notes: SNM1A (DCLRE1A), human, core catalytic domain, residues 698-1040; Used for HDX-MS, mass photometry and nuclease assays; Mass photometry legend gives an expected mass of 36 kDa; also called C-terminal SNM1A; source: purified from insect cells
For B3, in data set [2], the Kd was 499 nM.

B4: CSB lacking the N-terminal domain (DN-CSB, a.a. 402-1493) (domain or fragment, human, UniProt Q03468 402-1493, looked up)
chain: YELKPLPKGGKRQKKVPVQEIDDDFFPSSGEEAEAASVGEGGGGGRKVGRYRDDGDEDYYKQRLRRWNKLRLQDKEKRLKLEDDSEESDAEFDEGFKVPGFLFKKLFKYQQTGVRWLWELHCQQAGGILGDEMGLGKTIQIIAFLAGLSYSKIRTRGSNYRFEGLGPTVIVCPTTVMHQWVKEFHTWWPPFRVAILHETGSYTHKKEKLIRDVAHCHGILITSYSYIRLMQDDISRYDWHYVILDEGHKIRNPNAAVTLACKQFRTPHRIILSGSPMQNNLRELWSLFDFIFPGKLGTLPVFMEQFSVPITMGGYSNASPVQVKTAYKCACVLRDTINPYLLRRMKSDVKMSLSLPDKNEQVLFCRLTDEQHKVYQNFVDSKEVYRILNGEMQIFSGLIALRKICNHPDLFSGGPKNLKGLPDDELEEDQFGYWKRSGKMIVVESLLKIWHKQGQRVLLFSQSRQMLDILEVFLRAQKYTYLKMDGTTTIASRQPLITRYNEDTSIFVFLLTTRVGGLGVNLTGANRVVIYDPDWNPSTDTQARERAWRIGQKKQVTVYRLLTAGTIEEKIYHRQIFKQFLTNRVLKDPKQRRFFKSNDLYELFTLTSPDASQSTETSAIFAGTGSDVQTPKCHLKRRIQPAFGADHDVPKRKKFPASNISVNDATSSEEKSEAKGAEVNAVTSNRSDPLKDDPHMSSNVTSNDRLGEETNAVSGPEELSVISGNGECSNSSGTGKTSMPSGDESIDEKLGLSYKRERPSQAQTEAFWENKQMENNFYKHKSKTKHHSVAEEETLEKHLRPKQKPKNSKHCRDAKFEGTRIPHLVKKRRYQKQDSENKSEAKEQSNDDYVLEKLFKKSVGVHSVMKHDAIMDGASPDYVLVEAEANRVAQDALKALRLSRQRCLGAVSGVPTWTGHRGISGAPAGKKSRFGKKRNSNFSVQHPSSTSPTEKCQDGIMKKEGKDNVPEHFSGRAEDADSSSGPLASSSLLAKMRARNHLILPERLESESGHLQEASALLPTTEHDDLLVEMRNFIAFQAHTDGQASTREILQEFESKLSASQSCVFRELLRNLCTFHRTSGGEGIWKLKPEYC
notes: Cloned by InFusion from the full-length CSB pFastBac vector
The term stoichiometry N denotes the number of molecules, sites or subunits per partner or assembly. Turning to B4, in data set [3], the “stoichiometry N” value is 2.

B5: CSB (a.a. 1308-1493) (domain or fragment, human, UniProt Q03468 1308-1493, looked up)
chain: VSGVPTWTGHRGISGAPAGKKSRFGKKRNSNFSVQHPSSTSPTEKCQDGIMKKEGKDNVPEHFSGRAEDADSSSGPLASSSLLAKMRARNHLILPERLESESGHLQEASALLPTTEHDDLLVEMRNFIAFQAHTDGQASTREILQEFESKLSASQSCVFRELLRNLCTFHRTSGGEGIWKLKPEYC
notes: source: E. coli BL21(DE3) pLysS, purified (Ni-NTA, Superdex S75)
With B5, the binding result in data set [4] is “binds”.

B6: CSB winged-helix domain (WHD, a.a. 1424-1493) (domain or fragment, human, UniProt Q03468 1424-1493, looked up)
chain: HDDLLVEMRNFIAFQAHTDGQASTREILQEFESKLSASQSCVFRELLRNLCTFHRTSGGEGIWKLKPEYC
notes: also called CSB-WHD; source: E. coli BL21(DE3) pLysS, purified (Ni-NTA, Superdex S75)
For the molecule B6, the values for the Kd in data set [5] and in data set [6] were approximately 1000 nM and 89 nM, respectively. Also, the “stoichiometry N” value in data set [7] was 1.

B7: CSB C-terminal domain (a.a. 1187-1493) (domain or fragment, human, UniProt Q03468 1187-1493, looked up)
chain: HHSVAEEETLEKHLRPKQKPKNSKHCRDAKFEGTRIPHLVKKRRYQKQDSENKSEAKEQSNDDYVLEKLFKKSVGVHSVMKHDAIMDGASPDYVLVEAEANRVAQDALKALRLSRQRCLGAVSGVPTWTGHRGISGAPAGKKSRFGKKRNSNFSVQHPSSTSPTEKCQDGIMKKEGKDNVPEHFSGRAEDADSSSGPLASSSLLAKMRARNHLILPERLESESGHLQEASALLPTTEHDDLLVEMRNFIAFQAHTDGQASTREILQEFESKLSASQSCVFRELLRNLCTFHRTSGGEGIWKLKPEYC
notes: pNIC28-Bsa4 vector: N-terminal His6 followed by a TEV site; no cleavage is described; also called C-terminal CSB construct; source: E. coli BL21(DE3) pLysS, purified (Ni-NTA, Superdex S75)
Turning to B7, the Kd is 29 nM in data set [5]; 10.7 nM and 12 nM in data set [6]. In addition, the “stoichiometry N” value in data set [7] is 2.
